For seven substances, Antibody Specificity, HP8 and localization of intravenously injected scFv fragments in tissues of FVB mice (histology with anti-his6 antibody) results are on record in patent publication USRE46211.

The target in experiment [1] is HP8/HEVIN, extracellular matrix protein (UniProt Q14515). The experiment is described as follows: binding of COS-7 expressed antibody to HP8; method and unit not given.
For experiment [2], the target named is mouse myosin IIb (myosin heavy chain IIb), 200 kDa skeletal muscle protein (mouse) (UniProt Q5SX39). The experiment can be described thus: cell-based or functional assay.
Sequence of UniProt Q5SX39 (Q5SX39 whole entry): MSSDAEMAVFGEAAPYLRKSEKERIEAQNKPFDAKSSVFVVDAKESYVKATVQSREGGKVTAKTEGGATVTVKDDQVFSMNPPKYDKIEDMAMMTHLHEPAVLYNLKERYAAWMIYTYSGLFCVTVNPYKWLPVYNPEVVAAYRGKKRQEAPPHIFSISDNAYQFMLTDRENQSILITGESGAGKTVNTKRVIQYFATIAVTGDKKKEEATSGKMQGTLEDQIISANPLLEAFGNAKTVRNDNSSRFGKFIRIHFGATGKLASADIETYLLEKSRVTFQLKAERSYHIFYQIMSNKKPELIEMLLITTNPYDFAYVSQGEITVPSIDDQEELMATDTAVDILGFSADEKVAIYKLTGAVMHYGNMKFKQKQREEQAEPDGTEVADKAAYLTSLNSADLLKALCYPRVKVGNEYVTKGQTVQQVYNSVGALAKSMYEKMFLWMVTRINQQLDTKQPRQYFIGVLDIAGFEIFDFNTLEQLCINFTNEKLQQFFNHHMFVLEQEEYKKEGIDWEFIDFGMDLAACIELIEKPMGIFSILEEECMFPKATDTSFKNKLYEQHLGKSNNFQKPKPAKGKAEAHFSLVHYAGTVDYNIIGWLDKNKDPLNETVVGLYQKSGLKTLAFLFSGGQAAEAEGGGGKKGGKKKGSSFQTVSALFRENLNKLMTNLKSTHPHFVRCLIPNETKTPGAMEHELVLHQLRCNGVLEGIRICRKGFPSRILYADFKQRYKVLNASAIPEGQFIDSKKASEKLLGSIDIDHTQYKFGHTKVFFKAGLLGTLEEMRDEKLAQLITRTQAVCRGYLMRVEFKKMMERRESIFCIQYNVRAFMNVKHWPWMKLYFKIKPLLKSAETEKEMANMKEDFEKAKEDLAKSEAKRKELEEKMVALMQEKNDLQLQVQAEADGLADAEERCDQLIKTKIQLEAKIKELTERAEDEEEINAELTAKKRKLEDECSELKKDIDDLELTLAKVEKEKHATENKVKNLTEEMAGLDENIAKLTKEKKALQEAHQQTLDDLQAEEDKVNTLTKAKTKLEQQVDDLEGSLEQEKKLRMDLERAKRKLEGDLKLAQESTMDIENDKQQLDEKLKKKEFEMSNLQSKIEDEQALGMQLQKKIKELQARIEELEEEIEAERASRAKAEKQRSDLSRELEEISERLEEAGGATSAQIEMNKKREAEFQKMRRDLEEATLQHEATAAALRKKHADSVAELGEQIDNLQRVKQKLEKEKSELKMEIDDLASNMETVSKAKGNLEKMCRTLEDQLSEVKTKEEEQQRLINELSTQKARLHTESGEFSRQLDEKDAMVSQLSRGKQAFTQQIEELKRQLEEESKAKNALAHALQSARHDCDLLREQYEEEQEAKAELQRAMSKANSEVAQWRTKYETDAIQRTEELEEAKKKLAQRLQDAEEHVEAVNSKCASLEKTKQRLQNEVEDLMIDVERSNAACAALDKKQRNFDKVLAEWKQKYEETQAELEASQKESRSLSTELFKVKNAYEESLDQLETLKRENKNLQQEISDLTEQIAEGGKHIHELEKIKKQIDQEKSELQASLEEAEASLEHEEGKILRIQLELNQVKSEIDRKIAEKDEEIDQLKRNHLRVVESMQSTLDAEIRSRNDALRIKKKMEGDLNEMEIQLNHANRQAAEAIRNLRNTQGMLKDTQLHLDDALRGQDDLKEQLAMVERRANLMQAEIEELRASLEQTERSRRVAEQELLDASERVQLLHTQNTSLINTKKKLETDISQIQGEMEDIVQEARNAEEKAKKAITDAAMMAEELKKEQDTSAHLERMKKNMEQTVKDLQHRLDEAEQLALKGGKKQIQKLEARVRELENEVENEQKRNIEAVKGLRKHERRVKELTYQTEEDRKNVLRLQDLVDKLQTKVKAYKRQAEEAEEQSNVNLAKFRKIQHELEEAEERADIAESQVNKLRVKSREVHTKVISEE

Sequence of UniProt Q14515 (Q14515 17-664 limits assumed): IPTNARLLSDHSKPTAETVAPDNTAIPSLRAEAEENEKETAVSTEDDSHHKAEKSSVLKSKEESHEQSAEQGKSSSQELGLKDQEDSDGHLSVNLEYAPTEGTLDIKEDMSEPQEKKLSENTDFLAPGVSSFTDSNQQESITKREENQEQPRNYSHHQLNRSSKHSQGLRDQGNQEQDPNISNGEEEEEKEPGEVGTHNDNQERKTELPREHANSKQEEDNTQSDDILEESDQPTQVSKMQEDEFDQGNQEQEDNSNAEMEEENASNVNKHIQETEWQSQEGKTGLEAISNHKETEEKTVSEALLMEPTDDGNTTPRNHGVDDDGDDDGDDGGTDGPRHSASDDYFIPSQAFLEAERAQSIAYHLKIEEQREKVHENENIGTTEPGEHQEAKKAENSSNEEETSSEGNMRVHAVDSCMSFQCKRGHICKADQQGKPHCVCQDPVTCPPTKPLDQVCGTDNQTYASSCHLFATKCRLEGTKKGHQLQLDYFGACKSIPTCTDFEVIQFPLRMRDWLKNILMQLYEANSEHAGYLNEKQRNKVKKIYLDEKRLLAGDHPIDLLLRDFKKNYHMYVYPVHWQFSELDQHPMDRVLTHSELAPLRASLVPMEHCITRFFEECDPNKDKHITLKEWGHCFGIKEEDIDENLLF

In experiment [1], “mAb 3E10 VH31 mutant heavy chain with Vk residue 92 mutant light chain (R to N, L CDR3) (antibody)” yielded an Antibody Specificity, HP8 of 1.21. On the same count and under the same terms, with “mAb 3E10 VH31 mutant heavy chain with Vk residue 32 mutant light chain (Y to F, L CDR1) (antibody)” the figure was 2.76. For the substance “mAb 3E10 VH31 mutant heavy chain with Vk residue 27C mutant light chain (S to D, L CDR1) (antibody)”, the Antibody Specificity, HP8 in experiment [1] was 0.26. “mAb 3E10 scFv containing 3E10 VH and VkIII (Vk placed N-terminal of VH)” showed a localization of intravenously injected scFv fragments in tissues of FVB mice (histology with anti-his6 antibody) in experiment [2] of 20%. For “mAb 3E10 VH31 mutant heavy chain with Vk residue 94 mutant light chain (F to D, L CDR3) (antibody)”, in experiment [1], the Antibody Specificity, HP8 worked out at 0.2. Still for that read-out and setting: in the case of “recombinant mAb 3E10, native heavy chain with native (anti-dsDNA kIII) light chain, expressed in COS-7 cells (antibody)” it was 2.02. On to “mAb 3E10 VH31 mutant heavy chain (D to N at residue 31, H CDR1) with native light chain (antibody)”, for which the Antibody Specificity, HP8 in experiment [1] worked out at 1.3.
